Values quoted from earlier work as cited in PMC5331467.

Biological target: Tyr7 (UniProt position 7, SHHWGYGKHNG)
Test: NMR (jointly with neutron crystallography)

For “Carbonic anhydrase II (CA-II) (Homo sapiens)”, the pKa is given as 7.1.
